The experiment concerns the target MHC class II RT1.B^L (Lewis rat), isolated molecules (rat (Lewis)).

Here are results for one substance from patent publication US6673770B1, “Peptides for the treatment, prophylaxis, diagnosis and monitoring of autoimmune diseases” (Upither B.V., priority 1998, dated 2004).

One may read the IC50 as the midpoint of a concentration-inhibition curve. In turn, mycobacterial hsp65 180-188 peptide … gave a half-maximal inhibitory concentration (IC50) of 32 to 64 µM.
